The series concerns the target RAD51 WT (human, UniProt Q06609 1-339). In words: EMSA; 2 mM ATP, 10 mM Mg2+; 20 mM Hepes-NaOH pH 7.5, 0.1 mg/ml BSA, 1 mM DTT, 10 mM MgCl2, 150 mM KCl, 2 mM ATP or AMP-PNP or no nucleotide, 2.7 uM (nt) DNA, 37 C 10 min; 8% native PAGE in 1x TBE. The note with it: protein: recombinant; tags: N-terminal His-tag removed with thrombin; chain copies: 8; label: 5'-Cy5 on strand 1; blunt.

Sequence of RAD51 WT (Q06609 whole entry): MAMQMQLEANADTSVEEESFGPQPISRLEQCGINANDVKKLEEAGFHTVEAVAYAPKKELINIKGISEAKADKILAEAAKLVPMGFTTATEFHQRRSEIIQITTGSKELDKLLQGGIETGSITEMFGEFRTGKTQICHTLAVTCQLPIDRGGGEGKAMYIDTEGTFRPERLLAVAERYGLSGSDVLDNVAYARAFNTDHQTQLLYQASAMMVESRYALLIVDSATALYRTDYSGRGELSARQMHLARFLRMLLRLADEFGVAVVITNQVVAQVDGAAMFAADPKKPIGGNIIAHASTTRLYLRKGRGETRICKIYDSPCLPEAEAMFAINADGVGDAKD

B1: Cy5-OL4/OL5 40-mer (dsDNA)
DNA 1: TAATACAAAATAAGTAAATGAATAAACAGAGAAAATAAAG
DNA 2: CTTTATTTTCTCTGTTTATTCATTTACTTATTTTGTATTA
Turning to B1, the binding result was “binds”.

The record behind these values is paper PMC10716581, “Fanconi anemia-associated mutation in RAD51 compromises the coordinated action of DNA-binding and ATPase activities”.
